Results as given in patent US20230375531A1 (MIT, published 2023).

B1: Sso.E1 (rcSso7d binder against SARS-CoV-2 N protein) (designed binder)
chain: MATVKFTYQGEEKQVDISKIKIVRRGGQWISFWYDEGGGAYGAGYVSEKDAPKELLQMLEKQ
B2: BA-MBP-Sso.E1 (Sso.E1 fused to biotin and maltose binding protein) (designed binder, not shown: small tags and cut ends; large carriers)
chain: B1 chain
notes: also called reporter reagent
B3: Sso.E2 (rcSso7d binder against SARS-CoV-2 N protein) (designed binder)
chain: MATVKFTYQGEEKQVDISKIKNVGRWGQIIDFDYDEGGGAIGIGAVSEKDAPKELLQMLEKQ
B4: BA-MBP-Sso.E2 (Sso.E2 fused to biotin and maltose binding protein) (designed binder)
chain: B3 chain

Legend:
[1] = target: SARS-CoV-2 nucleocapsid (N) protein, recombinant, residues 1-419 (SARS-CoV-2, UniProt P0DTC9 1-419)
[2] = target: T1, truncated N-terminal domain (NTD) of SARS-CoV-2 N protein (SARS-CoV-2, UniProt P0DTC9 44-180); experiment: BLI, BA-MBP-Sso.E1 on streptavidin probes
T1 construct: domain: N-terminal domain (NTD)

[3] = target: T2, truncated C-terminal domain (CTD) of SARS-CoV-2 N protein (SARS-CoV-2, UniProt P0DTC9 247-364); experiment: BLI, BA-MBP-Sso.E2 on streptavidin probes
T2 construct: domain: C-terminal domain (CTD)

Binder	Kd [1] [nM]	other results
B1	3.2	–
B2	–	binding result [2]: no binding
B3	4.2	–
B4	–	binding result [3]: no binding
